In patent US20170313754A1 (PROTAGONIST THERAPEUTICS, published 2017):
Where two headings read alike, the source gives them in different places. Blank lines part the entries; values can stand above or below the binder they belong to. Numbered stars: 1 amine (or outer) side, 2 acyl side, 3 side chain; on linkers, the order of the positions; unused ones are H or OH. Bridge positions count the residues as written; N and C are the ends. Square brackets hold non-standard residues; d marks the D form. Ends that are not written are not given here. * marks the point of attachment. IDA = iminodiacetic acid, O=C(CN(CC(=O)[*:3])[*:1])[*:2]; β3hF = N[C@H](CC(=O)O)Cc1ccccc1; pGlu = O=C1CC[C@@H](C(=O)O)N1; β3hP = O=C(O)C[C@@H]1CCCN1; Isovaleryl = CC(C)CC(=O)*

Experiments:
Assay in all cases: cell-based or functional assay
[1] = biological target: T1, human ferroportin (SLC40A1) fused in frame with GFP, stably expressed on HEK293 cells (human, UniProt Q9NP59 1-571)
T1 sequence (looked up): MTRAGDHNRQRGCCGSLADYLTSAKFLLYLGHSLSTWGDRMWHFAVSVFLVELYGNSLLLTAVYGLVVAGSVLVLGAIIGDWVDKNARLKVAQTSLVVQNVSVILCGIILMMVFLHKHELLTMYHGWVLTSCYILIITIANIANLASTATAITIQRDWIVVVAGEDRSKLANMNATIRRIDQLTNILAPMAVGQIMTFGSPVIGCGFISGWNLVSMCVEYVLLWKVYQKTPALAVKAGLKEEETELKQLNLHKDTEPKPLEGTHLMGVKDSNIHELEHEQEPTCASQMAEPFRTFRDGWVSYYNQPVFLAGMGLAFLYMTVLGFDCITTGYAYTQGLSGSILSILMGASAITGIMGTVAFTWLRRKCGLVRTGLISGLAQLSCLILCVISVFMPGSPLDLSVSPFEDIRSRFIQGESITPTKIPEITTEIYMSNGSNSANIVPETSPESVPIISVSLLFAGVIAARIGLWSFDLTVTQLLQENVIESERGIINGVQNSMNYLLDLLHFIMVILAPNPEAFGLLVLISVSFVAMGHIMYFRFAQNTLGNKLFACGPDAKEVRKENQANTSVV

[2] = biological target: T1, human ferroportin (SLC40A1) fused in …; remark: listed apart in the source
[3] = biological target: T1, human ferroportin (SLC40A1) fused in …; remark: listed apart in the source
[4] = biological target: T1, human ferroportin (SLC40A1) fused in …; remark: listed apart in the source
[5] = biological target: T2, human ferroportin (SLC40A1) fused in frame with GFP, stably expressed in HEK293 cells (human, UniProt Q9NP59 1-571)
T2 sequence (looked up): T1 sequence (looked up)

B2: Hy-DTHFPCRF-NH2 (peptide)
peptide: H-DTHFPCRF-NH2
percent at the stated concentration, ferroportin internalization/degradation assay [2]: 31 % at 10 uM

B5: Hy-DPHFPCIIF-NH2 (peptide)
peptide: H-DPHFPCIIF-NH2
percent at the stated concentration, ferroportin internalization assay [1]: 64 % at 10 uM

B8: Hy-DTHFPCIIFAA-NH2 (peptide)
peptide: H-DTHFPCIIFAA-NH2
percent at the stated concentration, ferroportin internalization assay [1]: 59 % at 1 uM

B9: Hy-DTHFPCIIT-NH2 (peptide)
peptide: H-DTHFPCIIT-NH2
percent at the stated concentration, ferroportin internalization assay [1]: 23 % at 1 uM

B11: Hy-DTHFPCRRF-NH2 (peptide)
peptide: H-DTHFPCRRF-NH2
EC50 (nM), ferroportin internalization/degradation assay [2]: > 10000 nM

B12: Hy-DTHFPCRIF-NH2 (peptide)
peptide: H-DTHFPCRIF-NH2
percent at the stated concentration, ferroportin internalization/degradation assay [2]: 31 % at 10 uM

B13: Hy-DTHFPCLF-NH2 (peptide)
peptide: H-DTHFPCLF-NH2
percent at the stated concentration, ferroportin internalization/degradation assay [2]: 39 % at 1 uM

B16: Hy-DTHFPCIIFGPRSRGHVCK-NH2 (peptide)
peptide: H-DTHFPCIIFGPRSRGHVCK-NH2
modifications: not fully specified (bridges); printed as Hy-DTHFPCIIFGPRSRGHVCK-NH2; cysteine pairing not given here
Ferroportin internalization assay EC50 [1]: > 1000 nM

B17: Hy-DTHFPCIIFGPRSKGWNCK-NH2 (peptide)
peptide: H-DTHFPCIIFGPRSKGWNCK-NH2
modifications: not fully specified (bridges); printed as Hy-DTHFPCIIFGPRSKGWNCK-NH2; cysteine pairing not given here
Ferroportin internalization assay EC50 [1]: > 1000 nM

B18: Hy-ADHFPCIIF-NH2 (peptide)
peptide: H-ADHFPCIIF-NH2
Ferroportin internalization assay EC50 [1]: > 1000 nM

B20: Hy-DTHFPCEIF-NH2 (peptide)
peptide: H-DTHFPCEIF-NH2
EC50 (nM), ferroportin internalization/degradation assay [2]: > 1000 nM

B21: Hy-DTHFPCAIF-NH2 (peptide)
peptide: H-DTHFPCAIF-NH2
EC50 (nM), ferroportin internalization/degradation assay [2]: > 1000 nM

B23: Hy-DTHFPCIEY-NH2 (peptide)
peptide: H-DTHFPCIEY-NH2
percent at the stated concentration, ferroportin internalization assay [1]: 8 % at 1 uM

B25: Hy-DTHFPCINFGPRSKGWVCK-NH2 (peptide)
peptide: H-DTHFPCINFGPRSKGWVCK-NH2
modifications: disulfide 6-18 (inferred)
Ferroportin internalization assay EC50 [1]: > 1000 nM

B26: Hy-DTHFPCLIF-NH2 (peptide)
peptide: H-DTHFPCLIF-NH2
EC50 (nM), ferroportin internalization/degradation assay [2]: > 10000 nM

B27: Hy-ATHFPCIIF-NH2 (peptide)
peptide: H-ATHFPCIIF-NH2
Ferroportin internalization assay EC50 [1]: > 1000 nM

B30: Hy-DTHFPCIDFGPRSKGWVCK-NH2 (peptide)
peptide: H-DTHFPCIDFGPRSKGWVCK-NH2
modifications: disulfide 6-18 (inferred)
Ferroportin internalization assay EC50 [1]: > 1000 nM

B31: Hy-DTHFPCIIY-NH2 (peptide)
peptide: H-DTHFPCIIY-NH2
percent at the stated concentration, ferroportin internalization assay [1]: 75 % at 10 uM

B34: Hy-DTHFPCILY-NH2 (peptide)
peptide: H-DTHFPCILY-NH2
percent at the stated concentration, ferroportin internalization assay [1]: 85 % at 1 uM

B36: Hy-DTHFPCIIFAC-NH2 (peptide)
peptide: H-DTHFPCIIFAC-NH2
modifications: disulfide 6-11 (inferred)
Ferroportin internalization assay EC50 [1]: > 1000 nM

B37: Hy-DTHFPCRIF-NH2 (peptide)
peptide: H-DTHFPCRIF-NH2
EC50 (nM), ferroportin internalization/degradation assay [2]: > 1000 nM

B38: Hy-DTHFPCIFGPRSKGWVC-NH2 (peptide)
peptide: H-DTHFPCIFGPRSKGWVC-NH2
modifications: disulfide 6-17 (inferred)
EC50 (nM), ferroportin internalization/degradation assay [2]: > 1000 nM

B39: Hy-DTHFPCI-K(IVA)-FGPRSKGWVCK-NH2 (peptide)
peptide: H-DTHFPCIK(Isovaleryl)FGPRSKGWVCK-NH2
modifications: disulfide 6-18 (inferred)
Potency EC50 [5]: > 500 nM

B41: Hy-DTHFPCRIFGPRSRGWVCK-NH2 (peptide)
peptide: H-DTHFPCRIFGPRSRGWVCK-NH2
modifications: disulfide 6-18 (inferred)
EC50 (nM), ferroportin internalization/degradation assay [2]: > 1000 nM

B42: Hy-DTHFPCKIF-NH2 (peptide)
peptide: H-DTHFPCKIF-NH2
percent at the stated concentration, ferroportin internalization/degradation assay [2]: 9 % at 10 uM

B43: Hy-DTHFPCQIF-NH2 (peptide)
peptide: H-DTHFPCQIF-NH2
EC50 (nM), ferroportin internalization/degradation assay [2]: > 1000 nM

B44: Hy-DTHFPCIKF-K(IVA)-PRSKGWVCK-NH2 (peptide)
peptide: DTHFPCIKFKPRSKGWVCK
modifications: IVA (isovaleric acid) on the side chain of Lys 10; C-terminal amide
Potency EC50 [5]: > 500 nM

Now from value to binder:

Ferroportin internalization assay EC50 [1]: 9 nM
B1: Isovaleric acid-DTHFPCIIF-[Sarc]-PHSKG[N-MeTrp]-VC-NH2 (peptide)
peptide: DTHFPCIIFXPHSKGWVC
modifications: N-terminal isovaleric acid; Sarc at 10; N-MeTrp at 16; C-terminal amide

percent at the stated concentration, ferroportin internalization/degradation assay [2]: 81 % at 10 uM
B3: Hy-DTHFPCVIF-NH2 (peptide)
peptide: H-DTHFPCVIF-NH2

EC50 (nM) (n > 3), ferroportin internalization/degradation assay [3]: 16 nM
B4: (Isovaleric acid-DTHFPCIKF)2[Lys]-Lys(Palm)-NH2 (peptide)
peptide: DTHFPCIKF
modifications: N-terminal isovaleric acid on each subunit; the two subunits are joined at their C-termini through a [Lys] linker, which is followed by Lys(Palm)-NH2

Ferroportin internalization assay EC50 [1]: > 1000 nM
B6: Isovaleric acid-DTEFPCIKFEPRSKEWVCK-NH2 (peptide)
peptide: Isovaleryl-DTEFPCIKFEPRSKEWVCK-NH2
modifications: disulfide 6-18 (inferred)

EC50 (nM), ferroportin internalization/degradation assay [2]: > 1000 nM
B7: Hy-[pGlu]-THFPCRKF-NH2 (peptide)
peptide: [pGlu]THFPCRKF-NH2
SMILES: C[C@@H](O)[C@H](NC(=O)[C@@H]1CCC(=O)N1)C(=O)N[C@@H](Cc1c[nH]cn1)C(=O)N[C@@H](Cc1ccccc1)C(=O)N1CCC[C@H]1C(=O)N[C@@H](CS)C(=O)N[C@@H](CCCNC(=N)N)C(=O)N[C@@H](CCCCN)C(=O)N[C@@H](Cc1ccccc1)C(N)=O

Ferroportin internalization assay EC50 [1]: 10 nM
B10: Isovaleric acid-DTHFPCIIF-[Sarc]-PRSKG[N-MeTrp]-VC-NH2 (peptide)
peptide: DTHFPCIIFXPRSKGWVC
modifications: N-terminal isovaleric acid; Sarc at 10; N-MeTrp at 16; C-terminal amide

Ferroportin internalization assay EC50 [1]: > 1000 nM
B14: Isovaleric acid-DTHFGCIKFEPRSKEWVCK-NH2 (peptide)
peptide: Isovaleryl-DTHFGCIKFEPRSKEWVCK-NH2
modifications: not fully specified (bridges); cysteine pairing not given here

EC50 (nM) (n > 3), ferroportin internalization/degradation assay [3]: 4 nM
EC50 (nM) (n > 3), ferroportin internalization/degradation assay [4]: 4 nM
B15: (Isovaleric acid-DTHFPCIRF)2[Lys]-K(iso-Glu-Palm)-NH2 (peptide)
peptide: Isovaleryl-DTHFPCIRFK-{K(γGlu-Palm)-NH2}
modifications: also: dimer: two subunits joined at C-termini through a Lys linker

EC50 (nM) (n > 3), ferroportin internalization/degradation assay [3]: 30 nM
EC50 (nM) (n > 3), ferroportin internalization/degradation assay [4]: 30 nM
B19: (Isovaleric acid-DTHFPCIKF)2[Lys]-NH2 (peptide)
peptide: DTHFPCIKF
modifications: N-terminal isovaleric acid on each subunit; the two subunits are joined at their C-termini through a [Lys]-NH2 linker

EC50 (nM), ferroportin internalization/degradation assay [2]: > 1000 nM
B22: Hy-DTHFPRRFGPRSKGWVC-NH2 (peptide)
peptide: H-DTHFPRRFGPRSKGWVC-NH2

EC50 (nM) (n > 3), ferroportin internalization/degradation assay [3]: 24 nM
EC50 (nM) (n > 3), ferroportin internalization/degradation assay [4]: 24 nM
B24: (isobutyric acid-DTHFPCIKF)2[Lys]K(iso-Glu-Palm)-NH2 (peptide)
peptide: DTHFPCIKF
modifications: N-terminal isobutyric acid on each subunit; the two subunits are joined at their C-termini through a [Lys] linker, which is followed by K(iso-Glu-Palm)-NH2

percent at the stated concentration, ferroportin internalization assay [1]: 45 % at 10 uM
B28: Hy-DTHKPCIIF-NH2 (peptide)
peptide: H-DTHKPCIIF-NH2

EC50 (nM), ferroportin internalization/degradation assay [2]: > 1000 nM
B29: [IDA]-THF-[bhPro]-CRR-[bhPhe]GPRSKGWVC-NH2 (peptide)
peptide: [IDA]THF[β3hP]CRR[β3hF]GPRSKGWVC-NH2
modifications: disulfide 6-18 (inferred)

Ferroportin internalization assay EC50 [1]: > 1000 nM
B32: Isovaleric acid-DTHFECIIFGPRSKGWVCK-NH2 (peptide)
peptide: Isovaleryl-DTHFECIIFGPRSKGWVCK-NH2
modifications: not fully specified (bridges); cysteine pairing not given here

percent at the stated concentration, ferroportin internalization assay [1]: 50 % at 10 uM
B33: Hy-DTHFVCIIF-NH2 (peptide)
peptide: H-DTHFVCIIF-NH2

EC50 (nM), ferroportin internalization/degradation assay [2]: > 1000 nM
B35: Isovaleric acid-DTHFPCRRFGPRSKGWVCK-NH2 (peptide)
peptide: Isovaleryl-DTHFPCRRFGPRSKGWVCK-NH2
modifications: disulfide 6-18 (inferred)

EC50 (nM) (n > 3), ferroportin internalization/degradation assay [3]: 14 nM
EC50 (nM) (n > 3), ferroportin internalization/degradation assay [4]: 14 nM
B40: (isovaleric acid-DTHFPCIKF)2[Lys]K(iso-Glu-Palm)-NH2 (peptide)
peptide: DTHFPCIKF
modifications: N-terminal isovaleric acid on each subunit; the two subunits are joined at their C-termini through a [Lys] linker, which is followed by K(iso-Glu-Palm)-NH2
